What was measured:
[1] = target: actinogelin (mouse (endogenous in Ehrlich tumor cells)) (UniProt Q7TPR4); assay: cross-linking
[2] = target: actinogelin (mouse (endogenous in Ehrlich tumor cells)) (UniProt Q7TPR4); assay: AUC
[3] = target: rabbit skeletal muscle actin (rabbit) (UniProt P68135); assay: co-sedimentation; conditions: scale: G-actin units per actinogelin dimeric unit

Sequence of actinogelin (Q7TPR4 whole entry): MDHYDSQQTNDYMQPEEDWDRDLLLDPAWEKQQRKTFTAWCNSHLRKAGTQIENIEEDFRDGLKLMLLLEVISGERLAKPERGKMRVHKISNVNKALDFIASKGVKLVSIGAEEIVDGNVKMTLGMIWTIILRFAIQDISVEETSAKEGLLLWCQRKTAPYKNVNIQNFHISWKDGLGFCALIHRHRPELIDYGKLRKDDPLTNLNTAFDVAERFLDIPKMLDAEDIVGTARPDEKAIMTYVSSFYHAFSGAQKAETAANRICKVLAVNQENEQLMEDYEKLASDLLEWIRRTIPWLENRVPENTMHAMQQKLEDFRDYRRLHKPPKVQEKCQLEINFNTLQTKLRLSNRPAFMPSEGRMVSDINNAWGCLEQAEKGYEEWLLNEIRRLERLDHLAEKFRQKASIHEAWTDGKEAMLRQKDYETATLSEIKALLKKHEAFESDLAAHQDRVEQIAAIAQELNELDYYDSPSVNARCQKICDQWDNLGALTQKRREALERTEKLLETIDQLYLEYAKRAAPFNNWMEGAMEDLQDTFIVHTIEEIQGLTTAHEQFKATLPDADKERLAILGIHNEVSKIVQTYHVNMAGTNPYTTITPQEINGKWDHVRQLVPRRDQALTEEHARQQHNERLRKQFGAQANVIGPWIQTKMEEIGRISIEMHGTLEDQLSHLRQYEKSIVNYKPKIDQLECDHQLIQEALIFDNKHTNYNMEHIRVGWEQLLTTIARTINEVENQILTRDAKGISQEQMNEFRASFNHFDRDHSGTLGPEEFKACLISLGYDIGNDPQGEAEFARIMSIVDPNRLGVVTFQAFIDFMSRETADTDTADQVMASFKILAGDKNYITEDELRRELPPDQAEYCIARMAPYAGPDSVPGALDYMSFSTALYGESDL

stoichiometry N [1]: 2 subunits | stoichiometry N [2]: 2 subunits | stoichiometry N [3]: 10 to 12
Substance: actinogelin (from UniProt Q7TPR4 1-892) (natural protein)

Reference: PMC2112147
